This note sets out measurements from a protein production outcome set (Wang et al. 2014).
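Also: failed if final PepcDB status was selected cloned or expressed and not failed if soluble or beyond.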

The nature of this data set: label from the status in PepcDB records.
As to “MEGNQAGSSLDSLIASFNKRIGELQELVIARNMYPASTIPDLSAIDTALSSMELQVQSIKDRLREETEAIPKAKKLIEASLKQQGKLQKMSIYAPSHFPDKATMLNSDLNRCLLQENAKQYEQHSTLSSLKFDEEAAVLPKEKKGRGSPPLWYITVEELNSLSSYMRGRLTLEKVNAAINDMASYAEANAHLIAASKQKLAENLWEKALKLRDIVTEQAVKGKHFFLETDMKGPSLKLDNTGKAILTVLRHLGRISETRIGQNRVIILMKPH”, the protein production result was “failed”.

For “MVTLQAFQPLIDTVQGSLLLASPDDGHIYCANQLACILLASPHSELLKSSVYDFLPDKNEAYTICRELAGNNMIYNRGMQLSTSTGRIFDVQLSARRISLDQVPLLVVSFSDRTETKVLGQLLDFERQLVERSLSIVKTLKEEGRQNDDEDKLTGVVGMHRLMSSAHSETSRAKRYGGSLSGLALELVNVPEMVPREDDGSAYGHLIRLAGSLCLQSSRDSDLVARRSANTFVILLPHTAIGGANEMGRRLIKSLRQLTFLYQGTEHQAAACVGISALRPEESSPTPMLERLEEALKKARDGGANYIIQLP”, the protein production result is listed as “failed”.

For “MSKHKFMIYFLTTTLVLPTFTTSIAHAEDTNEDDKMKSSSTQEEQTNHNEDVNDNNTNEASQPDDTQSDNTSSEAPTKEDSKNKIKREKSKSSNTSSEEKDDDNTSVSRSHQKRDKDTNNTYRTPLSPIFDATHSSGLPASNFLNPDLYQNGFSLTHLIASLFNFDSDISDYEQPASTNETDDDTHSTNEQDTDSQDQDQTEHSASSSDTTNREHDDVQQSSEKANQSDKTSRQDEIDTKQQSTANQDKDDASVSKALDAIDDFVSDETDDDKDNQGSNNTDTTNHQSYNDDTSTDSKNDSSKTSSSDSNSLSESALDTVLDKYSEDAKKTHQDFESSKKDNETNTSKGEKTKNNTTKASNPQLPTKKELEHKTTPAQSFEDDFKQSNTRSTSLFQTLPQLNGSDVTDGDITVVENKGTRDFIKSIAKDAHKIGQDKDLYASVMIAQAILESSSGNSTLAQAPNYNLFGIKGSYKGQSVNFNTLEAGSDNSMFSINAGFRKYPSTKASLEDYADLIKNGIDGNPTIYKPTWKHEAIDYRDATRHLSRTYATDPNYATKLNSLIKHYHLTDFDKKKMPDLDRYAKQTSSGEDASGSEFKSFEITDSSSPYPQGQCTWYVYERVQQFGKKVGSDWGDAHNWDNRAESDNYDVSQTPSTHSAVVFEAGQAGAHDIYGHVAFVEKVNKDGSIVISESNVKGLGIVSYRTIDASTAEDLHYIEPK”, the protein production entry is reported as “failed”.

For the sequence “MMYTNDNRIVMTLDAGGTNFVFSAIQGGKEIADPVVLPACADCLDKCLGNLVEGFKAIQAGLPEAPVAISFAFPGPADYQAGIIGDLPNFPSFRGGVALGPFLEDIFGIPVFINNDGSLFAYGEALTGVLPEINRRLREAGSTKRYKNLLGVTLGTGFGAGVVIDGELLRGDNAAGGYVWCLRNKKYPEYIVEESVSIRAVMRVYAERSGDAGARTPKEIFEIAEGIRPGNREAAIAAFEELGEMAGDALASAITLIDGLIVIGGGLSGASKYILPVLLKEMNAQTGMMDGARFGRLQKEVYDLDEEKSFAGFARGEAVEVLVPGTNRKVGYDPCKRIGVTFSKQGANRSIAMGAYVFALNHLSK”, the protein production entry is reported as “not failed”.

Regarding “MDEILARAGIFQGVEPSAIAALTKQLQPVDFPRGHTVFAEGEPGDRLYIIISGKVKIGRRAPDGRENLLTIMGPSDMFGELSIFDPGPRTSSATTITEVRAVSMDRDALRSWIADRPEISEQLLRVLARRLRRTNNNLADLIFTDVPGRVAKQLLQLAQRFGTQEGGALRVTHDLTQEEIAQLVGASRETVNKALADFAHRGWIRLEGKSVLISDSERLARRAR”, the protein production result is on record as “not failed”.

For “MTTTIHMLTIIILCGIVTWLTRIIPFVMISKVHLSERVVKWLSFIPITLFTALIIDGVLVQQEGVMGYTINMPFLITMIPTIVVAIVSRSLTITILSGIIIMALLRWVF”, the protein production entry is given as “failed”.

Regarding “MIKIVTDNFLYEKEKVLALRYMYDSAKKPGITIITVTNKQKYIKNIMDNFRRCLYPKKEFIIILNDTKLQTSLYKNYFSKTKNLKLFKVDSSYSLGECLNLAISKSNYNYIAKMDDDDYYGSHYILDSMNAFNYTDASIIGKATHFIYFEDRTLLNLWCQGNENTYATSVAGATFVMKKSIFNKVKFNSLNNGEDIDLLSQCNNLGIKIYSCSKFNYVYNRHASPDNHSWKISNDLLVKRSIKLCITKSYKRIVHILEHHHHHH”, the protein production result is reported as “failed”.

Turning to “MDQLWANRAASAEAAITERHLKKLWGLPGTQLGVVAWPPARKYTLFGTWHYWWQAHLLDCLVDAQVRDPQPERTTRIERQLRAHRLRNNLSWVNDYYDDMAWLALAIERAGRLAGVEKPTALRKLCDQFVTAWVPEDGGGIPWRKQDQFFNAPANGPAGIFLARYDDRLRRAQQMADWIDETLIDPDTHLVFDGIKAGSLVRAQYTYCQGVVLGLEVELAVRTQDPRHAPRVRRLVAAVDKEMTTDGVIKGAGGGDGGLFNGILARYLALVATTLPGETPEDIAARDTARTIVLKSARSAWDHRQTVDGLPLFSAFWDRNAEIPTAGGKEAEFVEGAVNASSVPERDLSVQLAGWMLMEAAHSVDSVDAEDAAGDQNGAGDGEVGHDENEDEELEHHHHHH”, the protein production entry is given as “not failed”.

“MSKIEIFEAAGCCATSSVVVSDEAVKWNASAEWAKKHGVNIQRYSLAKNPQQFLNTPVIRAFLNTSGMESLPATLLDGQLVMAGKLPSREDIARWAG”: the protein production result is listed as “not failed”.

As for “NMPRLRMLMSAFPKGGDLHHHLAGAIDAETMLQWAGDQNLCIDTIKLSVIPSPCDAAVNKKPAKNLERQDPILWNKLIDVFSMRNYHFDVAAGEHSGHDHFFSSFFHFAAALDNNFGRMIAYSRRDAAANNLLYIETMQNPKVVSTFARSVLQDAKGKNSPEDLWKVVKDRLPAAVAAAKAETTEAEAQSRQILQCDGRQPDPACSVTMRYMVFAVRAMPPEMVFAQLALGFALAHSDPRWVGVNIVAPEDGAVSMQDYDLHMQFFRFLRQLYPDVKITLHAGELALPLVPTAGLRDHIRKAVFVAGADRIGHGIDIGSEMNPVEILHHMAERPVPVEINLSSNDAILNIKGNQHPFALYRQYNVPVVISTDDAGVSRNDLTTEYMRAIEEQHVSYSDLKKLSRDSLEYAFLSGEGLWQKNTGESVKPVCSGIAFTAMPQGKCADFLVKNDKAALQWKLEAAFIRYEEQVREGA”, the protein production result is “failed”.

As to “MNNGRRIGLIMIITGATLWGLSGPMIQWLFQHTNVSSIDFLTIRLLLAGIFILSFLLIKKQNIFQIWKHPRHSIQLIIFSILGMLGAQYAFIETVHISNAVTATLFQFLGPVFITIYVAFEQRKFPASMQLLAIITALTGTYFIITNGSIENIVLSKEAIIFGLLTAIGFAFYTLHPASLIKECGTTLVIGWGMLIGGIALLICNRSFGWHELSQTFTTKTFSMLILIIISGTLSFLLYIGSLKYLAATETSILSSIEPLVAAIVSIAWLNESFGAYQLLGGVCIVLSVIFLTMPQKENEPAFTSEQI”, the protein production entry is reported as “failed”.

With “MNQLIFDFAAHDYPSFDKFLGTENAELVYVLRHKHGQFIYVWGEEGAGKSHLLQAWVAQALEAGKNAAYIDAASMPLTDAAFEAEYLAVDQVEKLGNEEQALLFSIFNRFRNSGKGFLLLGSEYTPQQLVIREDLRTRMAYCLVYEVKPLTDQEKIDALASMAAARQVTVDSEIFEYLLKHWRRDMDSLMMMLDTLDNYAVTMGKRITLPLLRQLLKQQETQLEHHHHHH”, the protein production entry is given as “not failed”.

Regarding “VILSATRPFVCSRAPLGLSESAFMPLNGRTKMITKMPFRLVSLSCLELHRASSFWDIGFCTGSVSIEAKLNFPHLHITAFEIRPEGAELMPVNSRRFGAPGIAYRIGDFMEEDISSLAPPDAVFIGGHGGRLVEMIAKVHSVMTKGGLLVFNSVSEESRHLFLTGIEACGMELLSSIRLTADGNNPIDILQARKKE”, the protein production entry is recorded as “failed”.

“MQMMEQFYPKVSIVIPVYNGSDYMREAIDSALGQTYGNIEVIVVNDGSSDGGLTHEIALSYGGNIRYFAKENGGVASALNFAIRMMDGEYFSWLSHDDIYYPNKIETQIGYLAEHDRNAILYSDFELIDCLSKVIKPVNAGEIPPEQFLYNLITIGHLNGCTLLVPKRCFEETGFFDESLRSTQDYALWFTFAQKYRFEQIRKVLVKYRTHSNQGSYVIPTHSQEVNDLHIWFLEEASERGLLPIPDEGASRFFLEVAGIYKKRGIYRAADYSCSMALRHMRDEGGLALLRELPRVAYLKYYFRKKQFKSYLRELRRSTVRRSLLEHHHHHH”: the protein production entry is given as “not failed”.

“MSLSRVTEIRYVGYGVKDFDAEKAFYADVWGLEPVGEDANNAWFKAQGADEHHVVQLRRADENRIDVIALAADSRSDVDALRASVEAAGCKVASEPAVLATPGGGYGFRFFSPDGLLFEVSSDVAKGAKRDLARWEGVPVKISHIVLHSPNHQDMVKFFTDVLGFKVSDWLGDFMCFLRCNSAHHRIAILPGPPCLNHVAYDMLSVDDMMRGAHRLKVKGIDIGWGPGRHTAGNNTFSYFVTPGGFVTEYTSELEEVDFDTHQYKVHVPAPMVMDQWGIGTGGPQTLPHPHANPGLFQTAEAEGHHHHHH”: the protein production entry was “not failed”.

For the sequence “MEMTKVTGKFDVKLTPENAYATGVGGVNLGRMALDKTFYGELEARSQGEMLSAMTAVKGSAGYVAIEQVVGKLCGRQGSFVLQHFGIMTDGQNRLHLEVVPHSGAGELTGLYGTMAISIENGQHFYEFSFCFEPASEVEG”, the protein production entry is on record as “not failed”.

As for “MNTIIRYASLWGLCAALTLAQTPSKTPDEIKQILNNYSHKNLKLIDPPTSSLEATPSFLSSPKETATTINQEIAKYHEKSDKAALGLYELLKGATTNLSLQAQELSVKQAMKNHTIAKAMFLPTLNASYNFKNEARDTPEYKHYNTQQLQAQVTLNVFNGFSDVNNVKEKSATYRSNVANLEYSRQSVYLQVVQQYYEYFNNLARMIALQKKLEQIKTDIKRVTKLYDKGLTTIDDLQSLKAQGNLSEYDILDMQFALEQNRLTLEYLTNLSVKNLKKTTIDAPNLQLRERQDLVSLREQISAIRYQNKQLNYYPKIDVFDSWLFWIQKPAYATGRFGNFYPGQQNTAGVTATLNIFDDIGLSLQKQSIMLGQLANEKNLAYKKLEQEKDEQLYRKSLDIARAKIESSKASLDAANLSFANIKRKYDANLVDFTTYLRGLTTRFDAEVAYNLALNNYEVQKANYIFNSGHKIDDYVH”, the protein production entry is “failed”.

Consider “MAIKFQYNKTSLQQLEKQLKVRVRTLPIIKNKESALRMEVKRCKTEAAGLEERLEKQIQAYEAMFALWNEFDASLIKVSDVHLGIKKIAGVRVPLLENVDFDIRPYSLFNSPKWYSDGIYLLKGLAQTAIEREFMLAKLNLLEHARKKTTQKVNLFEKVQIPGYQDALRKIKRFMEDEENLSKSSQKILKSIQEKRKEAEA”, for which the protein production result was “not failed”.

Turning to “MNENHLLDLEEQKTDLGRVEISPEVIEVIAGIAASEVEGVATMRGNFAAGVAEKLGYKNHGKGVKVDLNDEGIIVDVSVIILYGVSVPEVAKKIQQNIKQALQTMTAIELQSINVHIVGVHFEAVDGEEETKLEHHHHHH”, the protein production result was “failed”.

Turning to “MHQPHLSAEEKQHSHDHLSLDLIEAQYQLKNSAGKKNAKSVLVLVSGIELAGKGESVKQLREWVDPRYLRVKADPPQLLTTNQTFWQPYSSFIPAEGQIVVLFGNWYSDLLTTAMHVSKPLDETLFDAYVNSMRAFEQDLKNNHVDVVKVWFDLSWKSLQKRLDHIDASERQWHKLHGLDWRSKKQYETLQKLRQRFTPDWVFIDGEDEALRDREFAECILKALKDVPDHVQQADAAWTQSVVPQALLQPSSEVLEKAKYKKKLKKLTRRVADALRYDQRNVIVVFEGMDAAGKGGSIKRIVKRLDPREYDIFTISAPEKYELRHPYLWRFWTKLQNCSDIRIFDRSWYGRVLVERVEAFASDIEWQRAYDEINRFEKDLTDSQTVIVKIWLSISKEEQEKRFEAREKTPHKRFKITEDDWRNRAKWDEYLNAAADMFEHTSTDCAPWTIIATDDKPTARIKMLKAILKQLKSK”, the protein production result is reported as “failed”.
